Test results as given in doi:10.1101/2024.11.27.625625 (bioRxiv, 2024).

T1: TolR with an octahistidine-tag at the C-terminus (E. coli, UniProt P0ABV6 1-142)
T1 sequence: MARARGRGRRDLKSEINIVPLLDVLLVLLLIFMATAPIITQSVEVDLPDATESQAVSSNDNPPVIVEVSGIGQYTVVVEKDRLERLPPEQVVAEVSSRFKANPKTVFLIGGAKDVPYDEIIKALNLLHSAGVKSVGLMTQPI

B1: TolQ (natural protein, E. coli)
chain: MTDMNILDLFLKASLLVKLIMLILIGFSIASWAIIIQRTRILNAAAREAEAFEDKFWSGIELSRLYQESQGKRDNLTGSEQIFYSGFKEFVRLHRANSHAPEAVVEGASRAMRISMNRELENLETHIPFLGTVGSISPYIGLFGTVWGIMHAFIALGAVKQATLQMVAPGIAEALIATAIGLFAAIPAVMAYNRLNQRVNKLELNYDNFMEEFTAILHRQAFTVSESNKG

Columns and labels:
[1] = target: T1, TolR with an octahistidine-tag at the …; assay: co-purification
TolQ = target: B1; assay: co-purification
cryo-EM structure = target: the molecule itself; assay: cryo-EM structure

stoichiometry N [1] [TolR per TolA]	stoichiometry N (TolQ) [TolQ per TolA]	Binder	stoichiometry N (cryo-EM structure)
~1.5	~4.5	TolA (natural protein, E. coli, UniProt P19934 1-421, looked up) MSKATEQNDKLKRAIIISAVLHVILFAALIWSSFDENIEASAGGGGGSSIDAVMVDSGAVVEQYKRMQSQESSAKRSDEQRKMKEQQAAEELREKQAAEQERLKQLEKERLAAQEQKKQAEEAAKQAELKQKQAEEAAAKAAADAKAKAEADAKAAEEAAKKAAADAKKKAEAEAAKAAAEAQKKAEAAAAALKKKAEAAEAAAAEARKKAATEAAEKAKAEAEKKAAAEKAAADKKAAAEKAAADKKAAEKAAAEKAAADKKAAAEKAAADKKAAAAKAAAEKAAAAKAAAEADDIFGELSSGKNAPKTGGGAKGNNASPAGSGNTKNNGASGADINNYAGQIKSAIESKFYDASSYAGKTCTLRIKLAPDGMLLDIKPEGGDPALCQAALAAAKLAKIPKPPSQAVYEVFKNAPLDFKP	
		B1	5
